Reference: PMC2064109 (The Journal of Cell Biology, 2007)

Biological target: T1, His-tagged bacterially expressed MBP-POSH fusion protein (human, UniProt Q7Z6J0 1-888)
T1 sequence (looked up): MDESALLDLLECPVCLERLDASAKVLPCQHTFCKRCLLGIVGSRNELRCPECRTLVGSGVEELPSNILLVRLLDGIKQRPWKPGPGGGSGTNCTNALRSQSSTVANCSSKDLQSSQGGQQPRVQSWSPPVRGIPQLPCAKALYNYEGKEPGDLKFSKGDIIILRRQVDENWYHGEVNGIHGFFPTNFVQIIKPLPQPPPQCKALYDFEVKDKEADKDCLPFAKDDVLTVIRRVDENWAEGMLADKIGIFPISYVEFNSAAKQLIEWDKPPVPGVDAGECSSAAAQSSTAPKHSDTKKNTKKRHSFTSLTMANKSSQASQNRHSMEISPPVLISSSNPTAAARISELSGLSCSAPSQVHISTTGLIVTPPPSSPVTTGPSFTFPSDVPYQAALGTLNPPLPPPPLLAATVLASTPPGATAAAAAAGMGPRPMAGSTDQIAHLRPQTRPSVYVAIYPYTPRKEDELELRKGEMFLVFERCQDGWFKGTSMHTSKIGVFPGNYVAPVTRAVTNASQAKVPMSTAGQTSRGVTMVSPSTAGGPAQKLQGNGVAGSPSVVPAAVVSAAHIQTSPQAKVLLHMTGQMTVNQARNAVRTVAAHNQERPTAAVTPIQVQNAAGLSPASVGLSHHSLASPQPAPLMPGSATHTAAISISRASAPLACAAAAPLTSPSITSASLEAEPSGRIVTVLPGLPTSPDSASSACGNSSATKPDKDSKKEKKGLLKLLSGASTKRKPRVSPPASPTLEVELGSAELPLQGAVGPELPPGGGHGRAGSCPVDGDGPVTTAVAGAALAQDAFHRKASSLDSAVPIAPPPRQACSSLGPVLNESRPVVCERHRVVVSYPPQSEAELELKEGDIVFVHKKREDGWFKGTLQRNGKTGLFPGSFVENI
Experiment: co-IP

B1: truncated Herp (tHerp; amino acids 1-272) with FLAG tag (domain or fragment, UniProt Q15011 1-272, looked up)
chain: MESETEPEPVTLLVKSPNQRHRDLELSGDRGWSVGHLKAHLSRVYPERPRPEDQRLIYSGKLLLDHQCLRDLLPKQEKRHVLHLVCNVKSPSKMPEINAKVAESTEEPAGSNRGQYPEDSSSDGLRQREVLRNLSSPGWENISRPEAAQQAFQGLGPGFSGYTPYGWLQLSWFQQIYARQYYMQYLAATAASGAFVPPPSAQEIPVVSAPAPAPIHNQFPAENQPANQNAAPQVVVNPGANQNLRMNAQGGPIVEEDDEINRDWLDWTYSAA
B1: binds.
